Test results from patent EP1666595A1 (Beth Israel Deaconess Medical Center, Inc., dated 2006).

T1: SHP-2 (endogenous, in BaF3, P210BCR-ABL BaF3 and BAC1.2F5 cells) (UniProt P35235 2-593)
T1 sequence (looked up): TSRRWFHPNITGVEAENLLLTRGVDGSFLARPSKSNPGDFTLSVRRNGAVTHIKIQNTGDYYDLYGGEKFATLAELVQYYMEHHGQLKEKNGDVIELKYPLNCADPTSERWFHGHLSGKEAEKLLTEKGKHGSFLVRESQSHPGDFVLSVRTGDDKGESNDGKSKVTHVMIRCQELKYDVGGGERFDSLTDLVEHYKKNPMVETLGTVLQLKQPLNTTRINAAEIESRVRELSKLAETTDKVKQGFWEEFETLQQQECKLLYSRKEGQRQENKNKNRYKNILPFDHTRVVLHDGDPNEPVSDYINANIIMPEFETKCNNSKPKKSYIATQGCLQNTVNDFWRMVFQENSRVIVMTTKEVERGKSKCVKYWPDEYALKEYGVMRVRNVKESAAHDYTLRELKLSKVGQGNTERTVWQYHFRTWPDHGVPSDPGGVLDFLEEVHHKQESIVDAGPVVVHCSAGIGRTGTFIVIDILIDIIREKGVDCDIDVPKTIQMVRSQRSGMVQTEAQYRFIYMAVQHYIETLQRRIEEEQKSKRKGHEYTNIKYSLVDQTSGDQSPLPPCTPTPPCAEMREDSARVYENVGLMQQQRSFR

B1: Gab2HA (HA-tagged wild type Gab2) (other, not shown: small tags and cut ends)
chain: MSGGGGDDVVCTGWLRKSPPEKKLRRYAWKKRWFILRSGRMSGDPDVLEYYKNEHSKKPLRIINLNLCEQVDAGLTFNKKELQDSFVFDIKTSERTFYLVAETEADMNKWVQSICQICGFNQAEESTDSLRNLSSASHGPRSSPAEFSSSQHLLRERKSSAPSHSSQPTLFTFEPPVSSHMQPTLSTSAPQEYLYLHQCISRRTENARSASFSQGTRQKSDTAVQKLAQSNGHCINGVGGQVHGFYSLPKPSRHNTEFKDSTYDLPRSLASHGHTKSSLTGSETDNEDVYTFKMPSNTLCRELGDLLVDNMDVPTTPLSAYQIPRTFTLDKNHNAMTVATPGDSAIAPPPRPPKPSQAETSQWGSIQQRPPISENSRSVAATIPRRNTLPAMDNSRLHRASSCETYEYPARGSGESASWSAEPPGKTAVGRSNSASSDDNYVPMNPGSSTLLAMERPGDNSQSVYIPMSPGPHHFDPLGYPSTALPIHRGPSRGSEIQPPPVNRNLKPDRKAKPTPLDLRNNTVIDELPFKSPVTKSWSRINSHTFNSSSSQYCRPISTQSITSTDSGDSEENYVPMQNPVSASPVPSGTNSPAPKKSTGSVDYLALDFQPGSPSPHRKPSTSSVTSDEKVDYVQVDKEKTQALQNTMQEWTDVRQSSEPSKGAKL
modifications: tyrosyl phosphorylated upon IL-3 stimulation

Assays:
[1] = molecular target: T1, SHP-2 (endogenous, in BaF3, P210BCR-ABL …); experiment: cell-based or functional assay
[2] = molecular target: B1; experiment: immunoprecipitation and immunoblotting, transfected BaF3 cells
[3] = molecular target: T2, Gab2 (endogenous, in BaF3, P210BCR-ABL BaF3 and BAC1.2F5 cells) (Mus musculus (Mouse), UniProt Q9Z1S8 1-665, tyrosyl phosphorylated upon stimulation; Y604 and Y633 'both sites are highly phosphorylated'); experiment: immunoprecipitation and immunoblotting, BaF3 cells
T2 construct: BaF3 is a murine line, and KIAA0571 is called the possible human homolog; also called p97; p97/Gab2

basal c-fos luciferase activity [1] | binding result [2] | binding result [3] | Binder
~2 fold | – | – | B1
– | no binding | no binding | Crk-L (endogenous, in BaF3 cells) (other, UniProt P47941 1-303, looked up, Named in brackets next to Crk) MSSARFDSSDRSAWYMGPVTRQEAQTRLQGQRHGMFLVRDSSTCPGDYVLSVSENSRVSHYIINSLPNRRFKIGDQEFDHLPALLEFYKIHYLDTTTLIEPAPRYPSPPVGSVSAPNLPTAEENLEYVRTLYDFPGNDAEDLPFKKGELLVIIEKPEEQWWSARNKDGRVGMIPVPYVEKLVRSSPHGKHGNRNSNSYGIPEPAHAYAQPQTTTPLPTVASTPGAAINPLPSTQNGPVFAKAIQKRVPCAYDKTALALEVGDIVKVTRMNINGQWEGEVNGRKGLFPFTHVKIFDPQNPDDNE
– | no binding | no binding | Crk (endogenous, in BaF3 cells) (other, UniProt Q64010 2-304, looked up) AGNFDSEERSSWYWGRLSRQEAVALLQGQRHGVFLVRDSSTSPGDYVLSVSENSRVSHYIINSSGPRPPVPPSPAQPPPGVSPSRLRIGDQEFDSLPALLEFYKIHYLDTTTLIEPVARSRQGSGVILRQEEAEYVRALFDFNGNDEEDLPFKKGDILRIRDKPEEQWWNAEDSEGKRGMIPVPYVEKYRPASASVSALIGGNQEGSHPQPLGGPEPGPYAQPSVNTPLPNLQNGPIYARVIQKRVPNAYDKTALALEVGELVKVTKINVSGQWEGECNGKRGHFPFTHVRLLDQQNPDEDFS
